Source: patent US20180016614

What was measured:
[1] = test system: His-tagged double mutant T7 RNA polymerase K183G, K190L expressed by C321.ΔA.759.T7.D
[2] = test system: N-terminally 6-His-tagged T7 RNA polymerase (wild type) expressed by C321.ΔA.759.T7

Substance: Outer membrane protease VII (OmpT)
- proteolytic cleavage of double mutant T7RNAP in lysate (α-His western blot) [1]: the double mutant T7RNAP expressed by C321.ΔA.759.T7.D is not cleaved despite the presence of active OmpT in the cellular lysate
- proteolytic cleavage of T7RNAP during lysate preparation (α-His western blot) [2]: the T7RNAP produced by the strain is cleaved near the N-terminus to yield a ˜21 kDa fragment
- proteolytic cleavage of T7RNAP in lysate of the ompT knockout strain (α-His western blot) [2]: a Western blot revealed that in the absence of OmpT the T7RNAP is no longer cleaved
